Values of other authors as cited in patent publication US9333241B2, “Thyroid-stimulating hormone receptor polypeptide agonist glycoforms to treat metabolic syndrome” (LipoLytics Therapeutics, LLC, priority 2005, dated 2016).

Key:
[1] = tested on: rodent models of the metabolic syndrome; details: recombinant glycoproteins produced in CHO cells
[2] = target: T1, human TSHR (Homo sapiens, UniProt P16473); details: human TSHR transfected into CHO cells
T1 construct: expressed in transfected cells; host or cells: CHO cells
T1 sequence (P16473 21-764): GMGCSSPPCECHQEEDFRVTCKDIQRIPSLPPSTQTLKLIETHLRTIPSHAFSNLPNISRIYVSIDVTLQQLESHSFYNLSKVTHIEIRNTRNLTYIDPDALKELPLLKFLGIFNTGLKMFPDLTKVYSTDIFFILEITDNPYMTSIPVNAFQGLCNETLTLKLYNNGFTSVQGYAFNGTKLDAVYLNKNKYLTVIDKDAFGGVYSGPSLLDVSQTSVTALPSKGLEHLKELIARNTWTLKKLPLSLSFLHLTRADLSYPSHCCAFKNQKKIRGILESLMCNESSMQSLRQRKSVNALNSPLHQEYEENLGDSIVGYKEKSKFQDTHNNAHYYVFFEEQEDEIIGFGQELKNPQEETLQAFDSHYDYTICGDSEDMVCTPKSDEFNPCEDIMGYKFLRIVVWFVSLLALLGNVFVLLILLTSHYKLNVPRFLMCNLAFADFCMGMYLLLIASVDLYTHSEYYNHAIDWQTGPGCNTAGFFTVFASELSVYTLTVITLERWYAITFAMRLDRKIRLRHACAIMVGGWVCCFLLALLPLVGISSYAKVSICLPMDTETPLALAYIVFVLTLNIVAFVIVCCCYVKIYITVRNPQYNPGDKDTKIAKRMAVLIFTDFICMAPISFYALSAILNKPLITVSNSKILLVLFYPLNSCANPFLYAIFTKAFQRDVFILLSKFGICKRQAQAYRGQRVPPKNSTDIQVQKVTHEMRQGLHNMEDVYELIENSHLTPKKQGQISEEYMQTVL

B1: CGH: heterodimeric glycoprotein of GPHA2 and GPHB5 subunits, produced recombinantly in CHO cells (protein, listed as Homo sapiens)
alpha: QEAVIPGCHLHPFNVTVRSDRQGTCQGSHVAQACVGHCESSAFPSRYSVLVASGYRHNITSVSQCCTISGLKKVKVQLQCVGSRREELEIFTARACQCDMCRLSRY
beta: ASSGNLRTFVGCAVREFTFLAKKPGCRGLRITTDACWGRCETWEKPILEPPYIEAHHRVCTYNETKQVTVKLPNCAPGVDPFYTYPVAIRCDCGACSTATTECETI
effect of treatment in rodents [1]: improved glucose and lipid profiles and in reversed liver steatosis
activation of human TSHR [2]: potently activates
